Test results published in patent US20230122862A1.

Molecular target: CD23 coated on ELISA plates (UniProt P06734)
Test: ELISA, CD23 coated, pre-formed mAb:IgE complex added, anti-human IgG Fc-HRP detection

EC50: 0.0416 µg/mL
Substance: pre-formed UB-221:IgE complex (from UniProt P01854 1-428)
